What follows are sequences tested on Escherichia coli TOP10 (assay: shrunken log2 fold change of peptide-encoding DNA abundance (4.5 h post-induction vs induction); higher = less antimicrobial activity (less host growth inhibition)). Conditions: time post-induction: 4.5 h; library: site-saturation at positions 5, 18, 19, 20.
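Also: peptides expressed intracellularly from a pBAD plasmid library in pooled LB shake-flask culture, induced with 0.3% L-arabinose, DNA abundance read by NGS, three biological replicates, DESeq2 with apeglm shrinkage.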

Row | Sequence | shrunken log2 fold change
1 | RRIRCRPPRLPRPRPRPLSIPRP | -0.917
2 | RRIRIRPPRLPRPRPRPTLHPRP | -0.377
3 | RRIRYRPPRLPRPRPRPIVRPRP | -0.0319
4 | RRIRVRPPRLPRPRPRPTSMPRP | -0.192
5 | RRIRPRPPRLPRPRPRPPYHPRP | -0.226
6 | RRIRVRPPRLPRPRPRPQTSPRP | -0.0971
7 | RRIRSRPPRLPRPRPRPREHPRP | 0.152
8 | RRIRERPPRLPRPRPRPCASPRP | -0.172
9 | RRIRKRPPRLPRPRPRPCVCPRP | 0.0462
10 | RRIRCRPPRLPRPRPRPGFLPRP | -0.245
11 | RRIRPRPPRLPRPRPRPTEFPRP | -0.268
12 | RRIRTRPPRLPRPRPRPIVWPRP | -0.0862
13 | RRIRARPPRLPRPRPRPQLYPRP | 0.0997
14 | RRIRVRPPRLPRPRPRPPCHPRP | -0.451
15 | RRIRPRPPRLPRPRPRPLTSPRP | -0.125
16 | RRIRYRPPRLPRPRPRPHSEPRP | -0.0168
17 | RRIRKRPPRLPRPRPRPPLRPRP | 0.708
18 | RRIRSRPPRLPRPRPRPHIQPRP | -0.699
19 | RRIRWRPPRLPRPRPRPKWEPRP | 0.0855
20 | RRIRNRPPRLPRPRPRPYLLPRP | -0.27
21 | RRIRTRPPRLPRPRPRPHAFPRP | -0.128
22 | RRIRQRPPRLPRPRPRPPSWPRP | 0.581
23 | RRIRDRPPRLPRPRPRPPTPPRP | 0.564
24 | RRIRGRPPRLPRPRPRPWMAPRP | 0.439
25 | RRIRFRPPRLPRPRPRPTRTPRP | 0.326

Row | Sequence | shrunken log2 fold change
26 | RRIRERPPRLPRPRPRPRVHPRP | 0.0407
27 | RRIRNRPPRLPRPRPRPKRQPRP | -0.0692
28 | RRIRYRPPRLPRPRPRPQYCPRP | -0.361
29 | RRIRDRPPRLPRPRPRPRVVPRP | 0.11
30 | RRIRPRPPRLPRPRPRPLVEPRP | 0.846
31 | RRIRPRPPRLPRPRPRPQTSPRP | 0.163
32 | RRIRERPPRLPRPRPRPKDIPRP | 0.0209
33 | RRIRYRPPRLPRPRPRPIGLPRP | -0.0167
34 | RRIRHRPPRLPRPRPRPLDHPRP | -0.34
35 | RRIRSRPPRLPRPRPRPMFMPRP | -0.223
36 | RRIRQRPPRLPRPRPRPIELPRP | -0.293
37 | RRIRFRPPRLPRPRPRPYMAPRP | -0.688
38 | RRIRVRPPRLPRPRPRPGVSPRP | -0.141
39 | RRIRDRPPRLPRPRPRPGCHPRP | 0.15
40 | RRIRWRPPRLPRPRPRPPNAPRP | 0.675
41 | RRIRTRPPRLPRPRPRPHQKPRP | -0.127
42 | RRIRVRPPRLPRPRPRPHCRPRP | 0.199
43 | RRIRDRPPRLPRPRPRPRHQPRP | 0.0533
44 | RRIRCRPPRLPRPRPRPWWSPRP | 0.119
45 | RRIRARPPRLPRPRPRPNYLPRP | 0.00106
46 | RRIRIRPPRLPRPRPRPVTYPRP | -0.275
47 | RRIRNRPPRLPRPRPRPRTQPRP | 0.11
48 | RRIRTRPPRLPRPRPRPIFMPRP | 0.0645
49 | RRIRSRPPRLPRPRPRPLMQPRP | -0.0707
50 | RRIRKRPPRLPRPRPRPFAHPRP | -0.00992

Row | Sequence | shrunken log2 fold change
51 | RRIRARPPRLPRPRPRPLYPPRP | -0.221
52 | RRIRDRPPRLPRPRPRPCSLPRP | -0.0409
53 | RRIRKRPPRLPRPRPRPGDDPRP | 0.758
54 | RRIRRRPPRLPRPRPRPQFQPRP | 0.00665
55 | RRIRDRPPRLPRPRPRPNSCPRP | 0.0563
56 | RRIRHRPPRLPRPRPRPLVIPRP | -0.343
57 | RRIRFRPPRLPRPRPRPYETPRP | -0.185
58 | RRIRERPPRLPRPRPRPACKPRP | 0.104
59 | RRIRMRPPRLPRPRPRPCVIPRP | -0.04
60 | RRIRKRPPRLPRPRPRPWMAPRP | 0.102
61 | RRIRMRPPRLPRPRPRPAHKPRP | 0.534
62 | RRIRGRPPRLPRPRPRPYKWPRP | -0.0702
63 | RRIRVRPPRLPRPRPRPKRQPRP | 0.0464
64 | RRIRDRPPRLPRPRPRPLPSPRP | -0.0341
65 | RRIRGRPPRLPRPRPRPVDHPRP | 0.193
66 | RRIRTRPPRLPRPRPRPPTRPRP | 0.663
67 | RRIRVRPPRLPRPRPRPEFVPRP | -0.262
68 | RRIRVRPPRLPRPRPRPWEIPRP | -0.00992
69 | RRIRHRPPRLPRPRPRPRPWPRP | 0.0732
70 | RRIRPRPPRLPRPRPRPVDTPRP | -0.592
71 | RRIRLRPPRLPRPRPRPVIAPRP | -0.176
72 | RRIRTRPPRLPRPRPRPEYTPRP | -0.052
73 | RRIRERPPRLPRPRPRPFWDPRP | 0.029
74 | RRIRFRPPRLPRPRPRPSVMPRP | -0.537
75 | RRIRNRPPRLPRPRPRPPNSPRP | -0.072

From the supplement of paper PMC9112550, “Optimization of the antimicrobial peptide Bac7 by deep mutational scanning” (BMC Biology, 2022)
